T1: IL18-BP (Mus musculus, UniProt Q9Z0M9)
T1 sequence (Q9Z0M9 29-193): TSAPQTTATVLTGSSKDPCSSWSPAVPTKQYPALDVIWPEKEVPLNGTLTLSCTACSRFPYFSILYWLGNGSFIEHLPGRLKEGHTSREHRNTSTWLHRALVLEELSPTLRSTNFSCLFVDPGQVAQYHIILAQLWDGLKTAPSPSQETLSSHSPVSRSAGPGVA

B1: BOJ-5G4-F4: Anti PVRIG mAb 407 mAb mouse IgG1 (antibody, V domains shown)
VH: QVQLQQSGAELAKPGSSVMISCKASGYTFTNYAVHWIKQTTGQALEWTGYIAPGSGVTKYNEKFKGKATLTVDKSSTTAYMQLSSLTPVDTAVYYCASGTTRFAYWGQGTLVTVSS
VL: DIVLTQSPALAVSLGQRATISCRASQSVSLSSYNLMQWYQQKPGQEPKILIYDASNLPSGIPARFSGSGSGTDFTLTIDPVQADDIATYYCQQSKDDPLTFGSGTKLEIK
B2: Engineered IL-18: engineered IL-18, sequence from US 20190070262A1, listed therein as mCS2 (SEQ ID NO: 61) (protein)
chain: HFGRLHCTTAVIRNINDQVLFVDKRQPVFEDMTDIDQSASEPQTRLIIYAYGDSRARGKAVTLSVKDSKMSTLSCKNKIISFEEMDPPENIDDIQSDLIFFQKRVPGHNKMEFESSLYEGHFLACQKEDDAFKLILKKKDENGDKSVMFTLTNLHQSHHHHHH

Tests used:
B16/Db-hmgp100 melanoma = assay: Syngeneic B16/Db-hmgp100 mouse tumor model; format: in vivo; conditions: anti-PVRIG combination study, vs isotype control mAbs
Protocol: B16/Db-hmgp100 cells were kindly provided by Dr. Hanada et al. (HHS agency) and were licensed from NIH. B16/Db-hmgp100 cells were generated by double transduction of B16F10 with H-2 Db and a retrovirus that encodes chimeric mouse gp100 that is comprised of the human gp10025-33 and the rest of mouse gp100. Cells were cultured in RPMI 1640 (Biological Industries, 01-100-1A) with 10% FBS (Biological Industries, 04-127-1A), and 100 μg/mL penicillin/streptomycin (Biological Industries, 03-031-1B), 1% Glutamax (Life technologies, 35050-038, 1% Sodium pyruvate (Biological Industries, 03-042-1B), 0.01% 2-mercaptoethanol (Life technologies, 31350-010, 10 μg/ml Blasticidin (InvivoGen, ant-bl-05). 1×10^5 B16/Db-hmgp100 cells subcutaneously into the back right flank of mice. […]
At day 4 post tumor inoculation mice were treated with mAbs (as detailed below) injected on day 4, 7, 11, 14, 18 and 21 post inoculation. Tumor growth was measured with caliper every 2-3 days. […]
Two-way ANOVA with repeated measures, followed by two-way ANOVA with repeated measures for selected pairs of groups using JMP (Statistical Discoveries™) software. Analyses of tumor growth measurements were performed by comparing tumor volumes measured on the last day on which all study animals were alive. Statistical differences in percentage of mice tumor free were determined by a Log Rank Mantel-Cox test. […]

[1] = MC38ova tumor-bearing mice treated with anti-mIL18BP or engineered mIL-18: weight, serum cytokines, spleen; format: in vivo, mouse
Protocol: Experiments were performed in C57Bl/6 (female, 6-8 wk, Envigo). Mice were anesthetized with 10% Ketamine and 10% Xylazine mixture injected intraperitoneal. Next, mice were inoculated with MC38ova cells (1.2×10^6) subcutaneously to the right flank in 50 μl/mice.
Spleens were harvested from mice 24 hours after the 4th treatment and weighed. For IL15 experiments, mice were treated with a single dose of 0.5 μg, 1.5 μg of IL15, or with a mix of 0.5 μg IL15 and 2.33 μg IL15R.

IL18-BP = molecular target: T1, IL18-BP; conditions: cited from earlier work

| Molecule | Tumor growth (B16/Db-hmgp100 melanoma) | Serum levels of IFNg, TNFa, MCP1 and IL6 ([1]; 4 hours after the 4th treatment, 0.32 mg/kg SC) | Serum levels of IL18 ([1]; 4 hours after the 4th treatment, detection identifies also engineered IL18) | Serum levels of IFNg ([1]; 24 hours after the 4th treatment) | Spleen enlargement compared to control ([1]; 24 hours after the 4th treatment, average) | Serum levels of IL18 ([1]; by 24 hours after the 4th treatment) | Binding to IL18-BP (IL18-BP) |
| --- | --- | --- | --- | --- | --- | --- | --- |
| B1 | comparable tumor growth to mice treated with isotype control mAbs |  |  |  |  |  |  |
| B2 |  | elevated serum levels of IFNg, TNFa, MCP1 and IL6 | very high serum levels of IL18 | elevated serum levels of IFNg | 4.9 folds | returned to baseline | shown not to bind IL18-BP |
